Reference: patent publication US12643926B2, “LysM receptor motifs” (Aarhus Universitet, priority 2020, dated 2026)

Legend:
[1] = Biolayer interferometry of LYS11 ectodomains binding to CO5; details: BLI; result in words
Protocol: Binding of L. japonicus LYS11 ectodomain and domain-swapped versions of L. japonicus LYS11 ectodomain to ligands was measured on an Octet RED 96 system (Pall ForteBio). The ligands used were CO5 chitin oligomer (corresponding to the backbone of S. meliloti Nod factor LCO-V), M. loti Nod factor LCO, and S. meliloti Nod factor LCO. S. meliloti LCO consists of a tetrameric/pentameric N-acetylglucosamine backbone that is O-sulfated on the reducing terminal residue, O-acetylated on the non-reducing terminal residue, and mono-N-acylated by unsaturated C16 acyl groups. M. loti LCO is a pentameric N-acetylglucosamine with a cis-vaccenic acid and a carbamoyl group at the non-reducing terminal residue together with a 2,4-O-acetylfucose at the reducing terminal residue. Biotinylated ligand conjugates were immobilized on streptavidin biosensors (kinetic quality, Pall ForteBio) at a concentration of 125-250 nM for 5 minutes. Data analysis was performed in GraphPad Prism 6 software (GraphPad Software, Inc.). Equilibrium dissociation constants derived from the steady-state were determined by applying a non-linear regression (one site, specific binding) to the response at equilibrium plotted against the protein concentration. Kinetic parameters were determined by non-linear regression (association followed by dissociation) on the subtracted data. […]

[2] = test system: M. truncatula nfp mutants; experiment: Complementation assay of M. truncatula nfp mutants, inoculation with S. meliloti strain 2011; type: in vivo, Medicago truncatula; details: nfp mutant roots; 6-7 weeks after inoculation with S. meliloti strain 2011
Source text: Construct assembly, plant growth conditions, hairy root transformations, nodulation and ROS assays were generally conducted as described in Bozsoki, et al. 2017 (Bozsoki, Z. et al. Proc. Natl. Acad. Sci. 2017 114: E8118-E8127). The tested transgenes were the mutated LysM receptors described above.

Molecule	binding to CO5 (chitin) [1]	average nodules per plant [2]
L. japonicus LYS11 ectodomain: L. japonicus LYS11 ectodomain (residues 26-234 of SEQ ID NO: 255), 6xHis tag, insect cell expressed (protein, 6xHis tag; Xaa = hydrophobic patch residues; Xaa = residues immediately adjacent to hydrophobic patch residues) LAQLSHTNGTNFSCPVDSPPSCDTYVTYFAQSPNFLTLTSISDLFDTSPLSIARASNIKDENQNLVPGQLLLVPVTCACSGSNSFSNISHMIKEGESYYYLSTTSYENLTNWETVQDSNPNYNPYLLPVGIKVVIPLFCKCPSNYHLNKGIEYLITYVWHNNDNVSLVASKFGVSTQDIISENNFSHQNFTAATNFPILIPVTQLPSLS	able to bind CO5	–
wild type M. truncatula NFP gene: wild type M. truncatula NFP transgene used to transform nfp mutant roots (protein, UniProt Q0GXS4 1-595, looked up, full-length, wild type M. truncatula NFP transgene used to transform nfp mutant roots) MSAFFLPSSSHALFLVLMLFFLTNISAQPLYISETNFTCPVDSPPSCETYVAYRAQSPNFLSLSNISDIFNLSPLRIAKASNIEAEDKKLIPDQLLLVPVTCGCTKNHSFANITYSIKQGDNFFILSITSYQNLTNYLEFKNFNPNLSPTLLPLDTKVSVPLFCKCPSKNQLNKGIKYLITYVWQDNDNVTLVSSKFGASQVEMLAENNHNFTASTNRSVLIPVTSLPKLDQPSSNGRKSSSQNLALIIGISLGSAFFILVLTLSLVYVYCLKMKRLNRSTSSSETADKLLSGVSGYVSKPTMYEIDAIMEGTTNLSDNCKIGESVYKANIDGRVLAVKKIKKDASEELKILQKVNHGNLVKLMGVSSDNDGNCFLVYEYAENGSLEEWLFSESSKTSNSVVSLTWSQRITIAMDVAIGLQYMHEHTYPRIIHRDITTSNILLGSNFKAKIANFGMARTSTNSMMPKIDVFAFGVVLIELLTGKKAMTTKENGEVVILWKDFWKIFDLEGNREERLRKWMDPKLESFYPIDNALSLASLAVNCTADKSLSRPTIAEIVLCLSLLNQPSSEPMLERSLTSGLDAEATHVVTSVIAR	–	10 nodules per plant
